Measured values as given in patent US20080044413A1 (published 2008).

Experiments:
cynomolgus EphA2 = molecular target: T1, cynomolgus EphA2 (cynomolgus, UniProt Q1KL86 24-976); experiment: flow cytometry on cynomolgus EphA2 transfected CHO cells, antibody 10 µg/ml, AlexaFluor 488 anti-mouse or anti-human IgG (H+L)
T1 construct: whole, on cells; also called cynomolgus EphA2 expressed on transfected CHO cells
Method: Subconfluent monolayers of SW480 colon carcinoma or cynomolgus EphA2 transfected CHO cells were quickly trypsinized, washed, counted, plated into 96-well round bottom plates, and stained with 10 μg/ml of a negative control antibody (R347), the anti-human EphA2 murine antibody, EA2 (Coffman 2003), or humanized antibodies, 3F2 and 4H5. Cells were resuspended in AlexaFluor 488 anti-mouse or anti-human IgG H+L (Invitrogen) and then analyzed by flow cytometry using a FACSCalibur (Becton Dickinson).

human EphA2 [1] = molecular target: T2, human EphA2 (human, UniProt P29317 24-976); experiment: flow cytometry on A549 cells, antibody 10 µg/ml, PE anti-mouse Fc gamma; control: irrelevant antibody of the same isotype [A]
T2 construct: whole, on cells; also called EphA2 receptor
Method: FIGS. 10A-10B: Flow cytometric binding analysis of anti-EphA2 parental antibodies. EphA2 expressing A549 cells (human lung carcinoma cell line) (A), and MDA-MB-231 cells (human breast cancer) (B) were used. Cells (200,000) were incubated with 10 μg/ml of the respective antibody for 30 min on ice. The cells were subsequently washed twice in PBS. The binding of the primary antibody was detected via an phycoerythrin-conjugated murine Fc-gamma specific antibody (Dianova, order no. 115-116-071) diluted 1:100 in 50 μl PBS with 2% FCS. As negative control, an irrelevant antibody with the same isotype was used (thin line). Cells were analyzed by flow cytometry on a FACS-Calibur (Becton Dickinson, Heidelberg). […] The binding capabilities of the three different antibodies are shown in a histogram overlay (4th peak from left=B322 antibody; 3rd peak from left=EA2 antibody; 2nd peak from left=EA5 antibody; far left peak—control).
A flow cytometric analysis was performed to estimate the binding strength of the anti-EphA2 parental monoclonal antibodies […], EA2 and EA5 (FIG. 10). […] The binding of the primary antibody was detected via an phycoerythrin conjugated murine Fc-gamma specific antibody (Dianova, order no. 115-116-071) diluted 1:100 in […] PBS with 2% FCS. […] Cells were analyzed by flow cytometry on a FACS-Calibur (Becton Dickinson, Heidelberg).

[2] = molecular target: T3, Human EphA2-Fc fusion protein (human, UniProt P29317 24-537); experiment: SPR (BIAcore 3000), KD against that of 4H5 scFv
T3 construct: extracellular domain; Expressed in HEK 293 cells; Biotinylated in the capture ELISAs; also called soluble EphA2 Fc fusion protein; not shown: Fc portion of a human IgG1
Method: (§1) 2A4, 2E7 and 12E2 as well as parental EA2 scFv and humanized 4H5 scFv were induced for expression in E. coli in a 1 L culture volume. The supernatants containing soluble, secreted scFv fragments were spun to remove cellular debris then passed over an anti-FLAG column (Sigma) to purify and isolate the variant proteins. The purified affinity optimized variants were analyzed by surface plasmon resonance detection using a BIAcore 3000 instrument (Pharmacia Biosensor, Uppsala, Sweden). […] For affinity measurement results, see the table in section 6.6, infra.

[3] = molecular target: T3, Human EphA2-Fc fusion protein; experiment: SPR (BIAcore 3000), purified monomeric scFv, human EphA2
Method: as §1

[4] = molecular target: T3, Human EphA2-Fc fusion protein; experiment: SPR (Biacore 3000), soluble IgG on immobilized EphA2-Fc
human EphA2 [5] = molecular target: T2, human EphA2; experiment: immunofluorescence microscopy of fixed monolayers of MCF-10A and MDA-MB-231 cells
Method: Monolayers of MCF-10A or MDA-MB-231 cells were cultured atop glass coverslips for at least 24 h at 37° C. before staining. Cell monolayers were fixed in 4% paraformaldehyde (2 min, 25° C.) before incubation with primary antibody (clone G5 (negative control), EA5, EA2, 3F2, or 4H5) for 30 min followed by subsequent staining with AlexaFluor 488-conjugated goat anti-mouse IgG or AlexaFluor 488-conjugated goat anti-human IgG (The Jackson Laboratory). Cells were fixed for analyses by immunofluorescence microscopy. […] The amino acid sequence of the VL and VH domains of the G5 antibody are depicted in FIG. 42.

T1 sequence (Q1KL86 24-976): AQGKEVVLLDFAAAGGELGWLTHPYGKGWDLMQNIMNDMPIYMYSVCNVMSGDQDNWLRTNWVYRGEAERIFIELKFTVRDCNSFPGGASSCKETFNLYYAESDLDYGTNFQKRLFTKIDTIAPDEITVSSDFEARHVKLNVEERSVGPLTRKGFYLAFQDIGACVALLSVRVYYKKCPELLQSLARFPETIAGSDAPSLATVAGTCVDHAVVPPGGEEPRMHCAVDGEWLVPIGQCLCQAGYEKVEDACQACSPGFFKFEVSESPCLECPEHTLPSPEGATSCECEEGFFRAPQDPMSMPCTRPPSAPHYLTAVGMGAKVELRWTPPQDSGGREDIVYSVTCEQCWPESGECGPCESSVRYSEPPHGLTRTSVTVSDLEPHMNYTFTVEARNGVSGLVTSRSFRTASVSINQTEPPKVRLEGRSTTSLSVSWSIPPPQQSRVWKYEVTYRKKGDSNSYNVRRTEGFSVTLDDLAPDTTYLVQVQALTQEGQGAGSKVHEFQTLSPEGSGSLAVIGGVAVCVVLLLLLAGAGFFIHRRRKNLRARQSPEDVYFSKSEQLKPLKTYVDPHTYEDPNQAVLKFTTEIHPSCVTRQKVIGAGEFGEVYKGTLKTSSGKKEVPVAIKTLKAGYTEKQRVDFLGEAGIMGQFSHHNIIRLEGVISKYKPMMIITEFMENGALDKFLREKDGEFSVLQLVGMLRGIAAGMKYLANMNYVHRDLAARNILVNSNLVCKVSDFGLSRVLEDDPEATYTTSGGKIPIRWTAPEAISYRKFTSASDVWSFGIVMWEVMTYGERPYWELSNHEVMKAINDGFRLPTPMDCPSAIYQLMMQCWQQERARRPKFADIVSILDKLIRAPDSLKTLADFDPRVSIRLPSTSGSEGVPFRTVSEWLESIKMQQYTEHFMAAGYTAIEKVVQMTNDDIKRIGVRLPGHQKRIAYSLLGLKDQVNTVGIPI

| Binder | Fold Difference (vs 4H5) [2] | Kd [3] | koff [3] | kon [3] | further results |
| --- | --- | --- | --- | --- | --- |
| anti-EphA2 antibody EA2 (antibody, V domains shown, Murine monoclonal antibody; Hybridoma ATCC PTA-4380; also called mAb EA2) VH: DVKLVESGGGLVKPGGSLKLSCAASGFTFSSYTMSWVRQTPEKRLEWVATISSGGTYTYYPDSVKGRFTISRDNAKNTLYLQMSSLKSEDTAMYYCTREAIFTYWGQGTLVTVSA VL: DIKMTQSPSSMYASLGERVTITCKASQDINNYLSWFQQKPGKSPKTLIYRANRLVDGVPSRFSGSGSGQDYSLTISSLEYEDMGIYYCLKYDEFPYTFGGGTKLEIK |  |  |  |  | binding result (cynomolgus EphA2): binds; binding result (human EphA2 [1]): binds |
| VH VL 2A4 scFv (scFv, FLAG and His tags as for 4H5 scFv) scFv: QVQLLESGGGLVQPGGSLRLSCAASGFTFSSYTMSWVRQAPGQALEWMGTISSRGTYTYYPDSVKGRFTISRDNAKNSLYLQMNSLRAEDTAVYYCAREAIFTHWGRGTLVTVSSGGGGSGGGGSGGGGSDIQLTQSPSSLSASVGDRVTITCKASQDINNYHSWYQQKPGQAPRLLIYRANRLVDGVPDRFSGSGYGTDFTLTINNIESEDAAYYFCLKYNVFPYTFGQGTKVEIK | 32 fold | 5.7 nM | 0.0037 s⁻¹ | 650000 M⁻¹ s⁻¹ |  |
| 4H5 VH-VL scFv humanized clone (scFv, Expressed with a C-terminal FLAG tag and His tag; also called 4H5 scFv; scFv 4H5) scFv: QVQLLESGGGLVQPGGSLRLSCAASGFTFSSYTMSWVRQAPGQALEWMGTISSGGTYTYYPDSVKGRFTISRDNAKNSLYLQMNSLRAEDTAVYYCAREAIFTYWGRGTLVTVSSGGGGSGGGGSGGGGSDIQLTQSPSSLSASVGDRVTITCKASQDINNYLSWYQQKPGQAPRLLIYRANRLVDGVPDRFSGSGYGTDFTLTINNIESEDAAYYFCLKYDVFPYTFGQGTKVEIK | 1 fold | 180 nM | 0.018 s⁻¹ | 100000 M⁻¹ s⁻¹ |  |
| VH VL 2E7 scFv (scFv, FLAG and His tags as for 4H5 scFv) scFv: QVQLLESGGGLVQPGGSLRLSCAASGFTFSSYTMSWVRQAPGQALEWMGTISSRGTYTYYPDSVKGRFTISRDNAKNSLYLQMNSLRAEDTAVYYCAREAIFTHWGRGTLVTVSSGGGGSGGGGSGGGGSDIQLTQSPSSLSASVGDRVTITCKASQDINNYGSWYQQKPGQAPRLLIYRANRLVDGVPDRFSGSGYGTDFTLTINNIESEDAAYYFCLKYNRFPYTFGQGTKVEIK | 25 fold | 7.3 nM | 0.0041 s⁻¹ | 560000 M⁻¹ s⁻¹ |  |
| Affinity optimized 3F2 (antibody, human IgG1, V domains shown, human IgG1 with human kappa chain) VH: EVQLVESGGGVVRPGGSLRLSCAASGFTVSDYSMNWVRQAPGKGLEWIGFIRNKANAYTTEYSASVKGRFTISRDDSKNTLYLQMNSLKTEDTAVYYCTTYPRYHAMDSWGQGTMVTVSS VL: AIQLTQSPSSLSASVGDRVTITCRASQSISNNLHWYLQKPGQSPQLLIYYGFQSISGVPSRFSGSGSGTDFTLTISSLQPEDFATYYCQQANSWPLTFGGGTKLEIK |  |  |  |  | Kd [4]: 0.671 nM; koff [4]: 0.000127 s⁻¹; kon [4]: 189000 M⁻¹ s⁻¹; binding result (cynomolgus EphA2): binds |
| anti-EphA2 antibody EA5 (antibody, V domains shown, Murine monoclonal antibody; Hybridoma ATCC PTA-4381; also called mAb EA5) VH: EVQLQQSGPELVKTGASVKISCKASGYSFTGYYMHWVKQSHGKSLEWIGYISCYNGVTSYNQKFKGKATFTVDTSSSTAYMQFNSLTSEDSAVYYCARSHAMDYWGQGTSVTVSS VL: not shown |  |  |  |  | binding result (human EphA2 [1]): binds |
| Chimaeric B 233 (antibody, V domains shown, Soluble IgG with the B233 variable regions; also called chimaeric mAb B233; chimeric B233) VH: EVKLVESGGGLVQPGGSLSLSCAASGFTFTDYSMNWVRQPPGKALEWLGFIRNKANDYTTEYSASVKGRFTISRDNSQSILYLQMNALRAEDSATYYCVRYPRYHAMDSWGQGTSVTVSS VL: DIVLTQSPATLSVTPGDSVNLSCRASQSISNNLHWYQQKSHESPRLLIKYVFQSISGIPSRFSGSGSGTDFTLSINSVETEDFGMYFCQQSNSWPLTFGAGTKLELK |  |  |  |  | Kd [4]: 0.3 nM; koff [4]: 8e-05 s⁻¹; kon [4]: 240000 M⁻¹ s⁻¹ |
| G5 (antibody, V domains shown, also called clone G5; anti-EphA2 antibody G5) VH: QMQLVQSGPEVKKPGTSVKVSCKASGFTFTDYSMNWVRQARGQRLEWIGFIRNKANDYTTEYSASVKGRVTITRDMSTSTAYMELSSLRSEDTAVYYCARYPRYHAMDSWGQGTSVTVSS VL: DIQMTQSPSSLSASVGDRVTITCRASQSISNNLHWYQQKPGKAPKLLIKYVFQSISGVPSRFSGSGSGTDFTFTISSLQPEDFATYYCQQSNSWPLTFGGGTKVEIK |  |  |  |  | binding result (human EphA2 [5]): binds |

Now from value to binder, other results behind:

| Fold Difference (vs 4H5) [2] | Kd [3] | koff [3] | kon [3] | Binder | further results |
| --- | --- | --- | --- | --- | --- |
| -4.8 fold | 870 nM | 0.03 s⁻¹ | 34000 M⁻¹ s⁻¹ | parental anti-EphA2 scFv EA2 (scFv, The murine EA2 variable regions were cloned in the same manner as the 4H5 scFv (VH, linker, VL, FLAG, His); also called EA2 scFv; not shown: C-terminal FLAG tag and His tag) scFv: DVKLVESGGGLVKPGGSLKLSCAASGFTFSSYTMSWVRQTPEKRLEWVATISSGGTYTYYPDSVKGRFTISRDNAKNTLYLQMSSLKSEDTAMYYCTREAIFTYWGQGTLVTVSAGGGGSGGGGSGGGGSDIKMTQSPSSMYASLGERVTITCKASQDINNYLSWFQQKPGKSPKTLIYRANRLVDGVPSRFSGSGSGQDYSLTISSLEYEDMGIYYCLKYDEFPYTFGGGTKLEIK |  |
| 23 fold | 7.8 nM | 0.0041 s⁻¹ | 520000 M⁻¹ s⁻¹ | VH VL 12E2 scFv (scFv, FLAG and His tags as for 4H5 scFv) scFv: QVQLLESGGGLVQPGGSLRLSCAASGFTFSSYTMSWVRQAPGQALEWMGTISSRGTYTYYPDSVKGRFTISRDNAKNSLYLQMNSLRAEDTAVYYCAREAIFTYWGRGTLVTVSSGGGGSGGGGSGGGGSDIQLTQSPSSLSASVGDRVTITCKASQDINNYLSWYQQKPGQAPRLLIYRANRLFDGVPDRFSGSGYGTDFTLTINNIESEDAAYYFCLKYDRFPYTFGQGTKVEIK |  |
